± gives the uncertainty stated by the source.
Assay: protein stability index of a GFP-peptide fusion (yeast GPS) (PSI 1-4); higher = more stable; sorted into four equal gates, so the index is relative within each strain
Procedure, shortened: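 Plasmids isolated from each sorting gate were PCR-amplified and Illumina-sequenced, and barcodes assigned the reads to strains. The gates, four of equal size, were set by GFP/Cherry fluorescence ratio on mid-log cultures in leucine-free medium. These cultures were yeast carrying a pooled library of tiled 17-residue yeast protein peptides fused downstream of GFP on a plasmid that also expresses Cherry. The protein stability index is the sum of every gate's read frequency times its gate number.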

| Sequence | protein stability index (doa10∆) | protein stability index (pdr5∆) | protein stability index (san1∆) | protein stability index (ubr1∆) |
| --- | --- | --- | --- | --- |
| PTDSSKILQKRSISKEL [SIR3] | 2.76 ± 0.066 | 2.98 ± 0.086 | 3.02 ± 0.065 | 2.85 ± 0.081 |
| SKQVTDYYQSIYAKYGA [FAS2] | 2.73 ± 0.051 | 2.67 ± 0.052 | 2.54 ± 0.057 | 2.77 ± 0.041 |
| MDKKILLNINGSRKVAG [SMX2] | 1.57 ± 0.06 | 1.84 ± 0.066 | 1.81 ± 0.09 | 2.11 ± 0.047 |
| KKVVIVKPHDEGSKSHP [RPL27A] | 2.87 ± 0.081 | 2.86 ± 0.066 | 2.82 ± 0.093 | 3.04 ± 0.057 |
| CANCVKERIVRAFLIEE [RPL34B] |  | 3.47 ± 0.26 |  |  |
| PGDGSSYINVTFRAVVF [RPC25] | 1.5 ± 0.083 | 2.05 ± 0.058 | 2.4 ± 0.077 | 2.08 ± 0.054 |
| ILTSLMRSKLEKLTLVT [CSN9] | 2.42 ± 0.081 | 3.03 ± 0.064 | 2.87 ± 0.06 | 2.67 ± 0.059 |
| LIIDEIHLLHDDRGPVL [BRR2] | 2.98 ± 0.1 | 2.98 ± 0.1 | 3.23 ± 0.046 | 2.88 ± 0.099 |
| SIIGNKNNNYTWEECVF [REC8] | 2.78 ± 0.15 | 2.62 ± 0.23 | 2.73 ± 0.085 | 2.43 ± 0.11 |
| PQTTQMFQSQSQLQPQP [YDL088C/ASM4] | 2.7 ± 0.052 | 2.5 ± 0.039 | 2.65 ± 0.046 | 2.46 ± 0.03 |
| IITKNENFLKEVFQLRI [GAL11] | 1.56 ± 0.091 | 1.54 ± 0.067 | 1.54 ± 0.11 | 1.26 ± 0.062 |
| FKSPIDNSESHPFIPLL [RRP6] | 1.95 ± 0.07 | 2.23 ± 0.053 | 2.03 ± 0.075 | 1.82 ± 0.052 |
| DQWYCIDKLEDLSRIMD [ITC1] | 2.65 ± 0.26 | 2.64 ± 0.22 |  |  |
| QQFNLHEILSEPAIEEE [MED1] | 2.94 ± 0.15 | 3.1 ± 0.12 | 2.98 ± 0.17 | 3.26 ± 0.13 |
| SLPSKLTKYKEMERIVK [SRP68] | 2.59 ± 0.055 | 2.55 ± 0.064 | 2.42 ± 0.046 | 2.86 ± 0.044 |
| VQQSEKLRNEVERIQKM [YIL149C/MLP2] | 3.13 ± 0.13 | 3.42 ± 0.2 | 2.86 ± 0.2 | 3.24 ± 0.12 |
| KDHDLKIPLPEVHDLIG [POP1] | 3.11 ± 0.12 | 2.91 ± 0.14 | 2.73 ± 0.21 | 2.54 ± 0.11 |
| LGLCLVIQIVTGIFMAM [COB] | 1.36 ± 0.053 | 1.2 ± 0.045 | 1.23 ± 0.13 | 1.42 ± 0.045 |
| DQLEDLREHFKNTEEGK [QCR6] | 2.75 ± 0.27 | 3.51 ± 0.14 | 3.36 ± 0.072 |  |
| REAIRPGHEMEDFLDKS [AAR2] | 3.23 ± 0.062 | 2.87 ± 0.056 | 3.24 ± 0.044 | 3.22 ± 0.036 |
| EFMAGFNIISMTLKEMY [SMC4] |  | 2.83 ± 0.24 | 3.21 ± 0.11 | 3.21 ± 0.089 |
| FDSLRNFIVHSPMLKRI [GRR1] | 2.89 ± 0.084 | 2.47 ± 0.079 | 2.8 ± 0.074 | 2.64 ± 0.076 |
| IDVMKSQIIPLMKKACY [SNU114] | 2.23 ± 0.094 | 2 ± 0.051 | 2.77 ± 0.047 | 2.08 ± 0.05 |
| ELLRLANEQLKLFNRIV [CSN12] | 2.3 ± 0.069 | 2.55 ± 0.082 | 1.64 ± 0.085 | 1.92 ± 0.07 |
| VRFIGDSVAAIGIPVNK [QCR2] | 2.83 ± 0.13 | 2.52 ± 0.16 | 2.4 ± 0.14 | 3.02 ± 0.2 |
| LRACAANVDQISFLEPI [YMR129W/POM152] | 3.06 ± 0.072 | 2.98 ± 0.07 | 2.92 ± 0.05 | 2.97 ± 0.046 |

| Sequence | protein stability index (doa10∆) | protein stability index (pdr5∆) | protein stability index (san1∆) | protein stability index (ubr1∆) |
| --- | --- | --- | --- | --- |
| HDADLEVSMNSIFAMGL [RPN1] | 1.85 ± 0.038 | 2.69 ± 0.045 | 2.65 ± 0.047 | 2.4 ± 0.034 |
| QSSEDVITIKSRIRVKI [RPB7] | 2.4 ± 0.11 | 2.41 ± 0.075 | 2.51 ± 0.078 | 3 ± 0.12 |
| KEQADIYAKQQEQLKQM [ARP7] | 1.75 ± 0.065 | 2.25 ± 0.086 | 1.78 ± 0.14 | 2.88 ± 0.066 |
| LPNEAGRLEIFKIHTAK [RPT4] | 2.6 ± 0.16 | 3.07 ± 0.16 | 2.92 ± 0.19 | 2.66 ± 0.11 |
| QDSIDISIKDNKLVMKS [GAL11] | 2.5 ± 0.064 | 2.77 ± 0.058 | 3.21 ± 0.053 | 2.05 ± 0.068 |
| DTLKDISTSFCFICLLH [BRN1] | 2.01 ± 0.081 | 2.44 ± 0.072 | 2.27 ± 0.14 | 1.95 ± 0.083 |
| MDETQTRAKIGGLNDPR [RPO21] | 2.8 ± 0.1 | 2.24 ± 0.11 | 2.3 ± 0.1 | 1.85 ± 0.22 |
| LIVDTHVQFRLGNVDAF [PRP8] | 2.75 ± 0.11 | 2 ± 0.11 | 2.32 ± 0.13 | 1.72 ± 0.066 |
| LWGPHGLNSDAEEVRNF [ECM29] | 3.77 ± 0.29 | 3.59 ± 0.15 | 3.5 ± 0.27 | 3.82 ± 0.16 |
| LTSTKVKQLENVSSNIV [RPS20] | 1.75 ± 0.075 | 2.16 ± 0.12 | 2.65 ± 0.11 | 3.19 ± 0.075 |
| QLTPQQQQLVNQMKVAP [GAL11] | 2.8 ± 0.061 | 2.98 ± 0.058 | 3.01 ± 0.061 | 2.79 ± 0.049 |
| ATGHRVLIFFQMTQIMD [SNF2] | 1.84 ± 0.082 | 2.51 ± 0.069 | 2.72 ± 0.094 | 2.64 ± 0.13 |
| GDLASLVLLNGRLRNKS [RPP1] | 2.83 ± 0.054 | 2.85 ± 0.041 | 2.83 ± 0.04 | 2.81 ± 0.038 |
| LLNILSGLPTCDYYNTF [RPN2] | 2.44 ± 0.1 | 2.73 ± 0.13 | 2.03 ± 0.16 | 2.3 ± 0.095 |
| KANEKKESDESKSAFSF [YJL041W/NSP1] | 2.95 ± 0.099 | 3.4 ± 0.07 | 3.18 ± 0.042 | 3.12 ± 0.043 |
| VQQRYTQSGGVRPFGVS [PRE6] | 2.8 ± 0.22 |  |  |  |
| RCTKIIKGNGESDETTT [RPT1] | 3.18 ± 0.14 |  | 3.36 ± 0.038 | 3.54 ± 0.11 |
| RIISGDQITKMKDRLVE [RPN9] |  |  | 3.34 ± 0.26 | 2.69 ± 0.19 |
| NKSTSSEAEYSKDIETL [YIL149C/MLP2] | 3.19 ± 0.089 | 2.97 ± 0.099 | 3.21 ± 0.062 | 3.26 ± 0.072 |
| VPVKLEEIKTVDPASAP [RRP6] | 2.83 ± 0.13 | 2.56 ± 0.16 | 2.87 ± 0.17 | 2.79 ± 0.11 |
| SDNISRKYEISFGKIYV [RPB2] | 2.79 ± 0.059 | 3.32 ± 0.073 | 2.78 ± 0.068 | 2.72 ± 0.072 |
| LGYKDTSVIQDLSEKIL [BRR2] | 2.77 ± 0.098 | 2.8 ± 0.098 | 2.81 ± 0.063 | 2.89 ± 0.065 |
| VQNSTLAQLTSKLIPEV [RPS1B] | 2.19 ± 0.084 | 2.73 ± 0.062 | 2.27 ± 0.12 | 2.55 ± 0.047 |
| KLVLNISVGESGDRLTR [RPL11A] |  |  | 2.6 ± 0.2 | 1.08 ± 0.14 |
| TKLTTCKRELAFVKQKN [YIL149C/MLP2] | 1.84 ± 0.078 | 1.81 ± 0.086 | 1.54 ± 0.11 | 1.48 ± 0.071 |
| EAVELPLVQADLYEQIG [RPT3] | 3.17 ± 0.15 | 2.81 ± 0.24 | 3.39 ± 0.12 | 2.93 ± 0.17 |

Source: the supplement of paper PMC9732359
